Experimental data published in article doi:10.1101/2021.01.30.428938.
Several values for one entry are separate records, joined by “and”; a condition that tells them apart may be missing. Identical values can stand only once.

How the values were obtained:
[1] = molecular target: Theileria parva schizont antigen Tp2, full-length native, bacterially expressed with His-tag (Theileria parva (Muguga)); test: SEC
[2] = molecular target: Theileria parva schizont antigen Tp2, full-length native, bacterially expressed with His-tag (Theileria parva (Muguga)); test: SEC-MALS

For “Theileria parva schizont antigen Tp2, full-length native, bacterially expressed with His-tag (natural protein)”, the stoichiometry N [1] was 4 and 2 and the stoichiometry N [2] was 2.
